Test results from article PMC5993824 (Nature Communications, 2018).

Target: T1, GST-CypA (UniProt P62937 1-165)
T1 construct: cyclophilin A fused to GST; source: E. coli BL21, purified on glutathione-agarose
Test: pull-down; GST proteins (GST, GST-CypA, GST-FKBP12) on glutathione sepharose (10 µl) added to HEK 293 T lysate (50 µl diluted to 500 µL with lysis buffer) of cells transfected with an empty (pCi) or Tat vector; 1 h at 4 °C; three washes with lysis buffer; western blots
Details: one partner purified

T1 sequence (P62937 whole entry, the tested form may be a part): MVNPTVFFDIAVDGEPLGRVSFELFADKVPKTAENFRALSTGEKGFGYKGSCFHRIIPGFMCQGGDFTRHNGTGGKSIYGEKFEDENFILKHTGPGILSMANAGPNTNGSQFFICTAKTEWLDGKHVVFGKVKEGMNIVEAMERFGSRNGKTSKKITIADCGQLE

B1: DHHC-20 (enzyme, human (endogenous in HEK 293 T), UniProt Q5W0Z9 1-365, looked up)
chain: MAPWTLWRCCQRVVGWVPVLFITFVVVWSYYAYVVELCVFTIFGNEENGKTVVYLVAFHLFFVMFVWSYWMTIFTSPASPSKEFYLSNSEKERYEKEFSQERQQEILRRAARALPIYTTSASKTIRYCEKCQLIKPDRAHHCSACDSCILKMDHHCPWVNNCVGFSNYKFFLLFLLYSLLYCLFVAATVLEYFIKFWTNELTDTRAKFHVLFLFFVSAMFFISVLSLFSYHCWLVGKNRTTIESFRAPTFSYGPDGNGFSLGCSKNWRQVFGDEKKYWLLPIFSSLGDGCSFPTRLVGMDPEQASVTNQNEYARSSGSNQPFPIKPLSESKNRLLDSESQWLENGAEEGIVKSGTNNHVTVAIEN
notes: S-acyl transferase DHHC-20, detected with anti-DHHC-20 (Sigma SAB 4501054); also called S-acyl transferase DHHC-20; source: endogenous, HEK 293 T lysate
- fold more pulled down from extracts of Tat-transfected cells against empty-vector cells: ~4 fold
